Results reported in patent publication US20140377284A1 (BIOCEROX PRODUCTS B V, published 2014).

T1: human CD134 (full-length, on cells) (human, UniProt P43489 29-277)
T1 sequence: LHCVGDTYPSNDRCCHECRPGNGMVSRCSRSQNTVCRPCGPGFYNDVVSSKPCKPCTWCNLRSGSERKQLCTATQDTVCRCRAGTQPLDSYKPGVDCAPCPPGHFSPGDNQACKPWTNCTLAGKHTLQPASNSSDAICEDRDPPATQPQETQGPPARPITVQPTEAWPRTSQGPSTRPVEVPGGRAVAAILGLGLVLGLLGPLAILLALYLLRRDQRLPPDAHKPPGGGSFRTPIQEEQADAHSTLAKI


Assays:
[1] = biological target: T1, human CD134 (full-length, on cells); test: flow cytometry, PHA-stimulated human CD3+ T lymphocytes
[2] = biological target: T2, recombinant human CD134:human Fcγ (IgG1) fusion protein (human, UniProt P01857-1 100-330 = IgG part, limits assumed); test: ELISA, plate-bound CD134:Fc 50 ng/well
T2 construct: domain: Fcγ (IgG1); Bought (R&D Systems); also called rhuCD134
T2 sequence (P01857 other isoform, or with tags, fused parts or gaps limits assumed): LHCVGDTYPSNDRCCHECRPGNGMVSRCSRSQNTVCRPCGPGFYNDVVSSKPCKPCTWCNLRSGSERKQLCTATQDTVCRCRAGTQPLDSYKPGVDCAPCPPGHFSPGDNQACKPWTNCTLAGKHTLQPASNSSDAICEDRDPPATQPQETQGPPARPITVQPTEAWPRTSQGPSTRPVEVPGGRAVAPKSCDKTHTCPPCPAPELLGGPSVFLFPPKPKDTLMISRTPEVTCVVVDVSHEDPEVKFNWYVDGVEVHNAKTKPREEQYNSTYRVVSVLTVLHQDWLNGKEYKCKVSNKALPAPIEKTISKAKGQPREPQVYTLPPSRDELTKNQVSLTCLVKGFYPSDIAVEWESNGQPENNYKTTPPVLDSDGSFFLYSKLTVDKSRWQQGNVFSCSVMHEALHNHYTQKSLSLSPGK
Protocol: Ninety six-wells flat-bottom ELISA plates (Corning) were coated with 50 ng/well recombinant human CD134:human Fcγ (IgG1) fusion protein (R&D Systems) in PBS o/n at 4° C. After extensive washing in PBS/0.05% Tween 20, plates were blocked in PBS/0.05% Tween 20/1% BSA fraction V (Roche) for 1 hour at RT. […] After extensive washing in PBS/0.05% Tween 20, binding of antibodies was determined with 1:5000 diluted horseradish peroxidase-conjugated goat anti-mouse (Fcγ specific) antibodies (Jackson ImmunoResearch) or with 1:4000 diluted horseradish peroxidase-conjugated goat anti-human κ-specific antibodies (Southern Biotech) for 1 hour at RT, followed by a ready-to-use solution of TMB substrate (Invitrogen) for colorimetric detection. After adding 1 M H₂SO₄, optical densities were measured at, a wavelength of 450 nm (reference wavelength of 655 nm) using a microplate reader (BioRad).

[3] = biological target: T1, human CD134 (full-length, on cells); test: flow cytometry, stable CD134 293-F clone no. 5
Protocol: (§1) Full-length human CD134 (SEQ ID NO. 1) was re-cloned in a pcDNA3.1-derived expression plasmid (see Example 11 (d) below). […] After extensive washing in PBS/BSA/NaN₃, cells were subsequently incubated with 1:200 diluted PE-conjugated goat anti-mouse IgG (Fcγ specific) antibodies (Jackson ImmunoResearch) or with 1:200 diluted PE-conjugated goat anti-human IgG (Fcγ specific) antibodies (Jackson ImmunoResearch) for 30 minutes at 4° C. After extensive washing in PBS/BSA/NaN₃, cells were fixed in 2% formaldehyde in PBS/BSA/NaN₃ for 30 minutes at 4° C. Binding of antibodies was measured using flow cytometry (FACSCalibur; BD Biosciences).

[4] = biological target: T1, human CD134 (full-length, on cells); test: cell-based or functional assay
[5] = biological target: T1, human CD134 (full-length, on cells); test: competition flow cytometry, stable CD134 293-F clone no. 5; competitor biotinylated mouse 12H3 at 700 ng/mL
Protocol: Full-length human CD134 (SEQ ID NO1) was re-cloned in a pcDNA3.1-derived expression plasmid (see Example 11 (c) above). […] After extensive washing in PBS/BSA/NaN₃, cells were fixed in 2% formaldehyde in PBS/BSA/NaN₃ for 30 minutes at 4° C.

[6] = biological target: T1, human CD134 (full-length, on cells); test: flow cytometry, stable CD134 293-F clone no. 23
Protocol: as §1

Molecule	EC50 [2]	binding result [3]	IC50 [5]	EC50 [6]	further results
commercially available mouse anti-human CD134 antibody clone ACT35	–	–	–	–	EC50 [1]: 2.5 µg/mL; saturating concentration [1]: 5 µg/mL
humanized IgG4κ anti-human CD134 antibody clone 20E5 version 20E5_VL1VH2 (antibody, V domains shown, Stabilized human IgG4/κ; end of each range computed; also called 20E5_VL1H2; VL1H2) VH: QVQLVQSGAEVKKPGASVKVSCKASGYTFTSYVMHWVRQAPGQRLEWIGYINPYNDGTKYNEKFKGRATITSDTSASTAYMELSSLRSEDTAVYYCANYYGSSLSMDYWGQGTLVTVSS VL: DIQMTQSPSSLSASVGDRVTITCRASQDISNYLNWYQQKPGKAPKLLIYYTSRLHSGVPSRFSGSGSGTDYTLTISSLQPEDFATYYCQQGNTLPWTFGQGTKVEIKR	~0.15 µg/mL	binds	–	–	–
humanized IgG4κ anti-human CD134 antibody clone 20E5 version 20E5_VL2VH1 (antibody, V domains shown, Stabilized human IgG4/κ; end of each range computed; also called 20E5_VL2H1) VH: QVQLVQSGAEVKKPGASVKVSCKASGYTFTSYVMHWVRQAPGQRLEWMGYINPYNDGTKYNEKFKGRVTITSDTSASTAYMELSSLRSEDTAVYYCANYYGSSLSMDYWGQGTLVTVSS VL: DIQMTQSPSSLSASVGDRVTITCRASQDISNYLNWYQQKPGKAVKLLIYYTSRLHSGVPSRFSGSGSGTDYTLTISSLQPEDFATYFCQQGNTLPWTFGQGTKVEIKR	~0.1 µg/mL	binds	–	–	–
humanized IgG4κ anti-human CD134 antibody clone 12H3 version 12H3_VL1VH2 (antibody, V domains shown, Stabilized human IgG4/κ; end of each range computed; also called 12H3_VL1H2; 2H3 VL1VH2 (SF2)) VH: QVQLVQSGAEVKKPGSSVKVSCKASGYTFKDYTMHWVRQAPGQGLEWIGGIYPNNGGSTYNQNFKDRVTLTADKSTSTAYMELSSLRSEDTAVYYCARMGYHGPHLDFDVWGQGTTVTVSS VL: DIQMTQSPSSLSASVGDRVTITCKASQDVGAAVAWYQQKPGKAPKLLIYWASTRHTGVPSRFSGSGSGTDFTLTISSLQPEDFATYYCQQYINYPLTFGGGTKVEIKR	~0.05 µg/mL	–	~1.5 µg/mL	< 0.2 µg/mL	Replication Index, Treg/Teff ratio 0:1, donor 1 [4]: 13.9; Replication Index, Treg/Teff ratio 0:1, donor 2 [4]: 12.1; Replication Index, Treg/Teff ratio 0:1, donor 3 [4]: 10.2; Replication Index, Treg/Teff ratio 0:1, donor 4 [4]: 10.7; Replication Index, Treg/Teff ratio 0:1, donor 5 [4]: 8.66; Replication Index, Treg/Teff ratio 1:2, donor 1 [4]: 5.33; Replication Index, Treg/Teff ratio 1:2, donor 2 [4]: 5.82; Replication Index, Treg/Teff ratio 1:2, donor 3 [4]: 6; Replication Index, Treg/Teff ratio 1:2, donor 4 [4]: 6.05; Replication Index, Treg/Teff ratio 1:2, donor 5 [4]: 4.71; Replication Index, Treg/Teff ratio 1:4, donor 1 [4]: 5.23; Replication Index, Treg/Teff ratio 1:4, donor 2 [4]: 5.21; Replication Index, Treg/Teff ratio 1:4, donor 3 [4]: 5.23; Replication Index, Treg/Teff ratio 1:4, donor 4 [4]: 5.51; Replication Index, Treg/Teff ratio 1:4, donor 5 [4]: 4.81
humanized IgG4κ anti-human CD134 antibody clone 12H3 version 12H3_VL2VH2 (antibody, V domains shown, Stabilized human IgG4/κ; end of each range computed; also called 12H3_VL2H2) VH: QVQLVQSGAEVKKPGSSVKVSCKASGYTFKDYTMHWVRQAPGQGLEWIGGIYPNNGGSTYNQNFKDRVTLTADKSTSTAYMELSSLRSEDTAVYYCARMGYHGPHLDFDVWGQGTTVTVSS VL: DIQMTQSPSSLSASVGDRVTITCKASQDVGAAVAWYQQKPGKAPKLLIYWASTRHTGVPDRFSGGGSGTDFTLTISSLQPEDFATYYCQQYINYPLTFGGGTKVEIKR	~0.05 µg/mL	–	~1.5 µg/mL	< 0.2 µg/mL	–
humanized IgG4κ anti-human CD134 antibody clone 12H3 version 12H3_VL1VH3 (antibody, V domains shown, Stabilized human IgG4/κ; end of each range computed; also called 12H3_VL1H3) VH: QVQLVQSGAEVKKPGSSVKVSCKASGYTFKDYTMHWVRQAPGQGLEWIGGIYPNNGGSTYNQNFKDRATLTVDKSTSTAYMELSSLRSEDTAVYYCARMGYHGPHLDFDVWGQGTTVTVSS VL: DIQMTQSPSSLSASVGDRVTITCKASQDVGAAVAWYQQKPGKAPKLLIYWASTRHTGVPSRFSGSGSGTDFTLTISSLQPEDFATYYCQQYINYPLTFGGGTKVEIKR	~0.05 µg/mL	–	~1.5 µg/mL	< 0.2 µg/mL	–
mouse anti-human CD134 monoclonal antibody clone 20E5 (antibody, V domains shown, also called m20E5; parental mouse anti-human CD134 antibody clone 20E5) VH: EVQLQQSGPELVKPGASVKMSCKASGYTFTSYVMHWVKQKPGQGLEWIGYINPYNDGTKYNEKFKGKATLTSDKSSSTAYMELSSLTSEDSAVYYCANYYGSSLSMDYWGQGTSVTVSS VL: DIQMTQTTSSLSASLGDRVTISCRASQDISNYLNWYQQKPDGTVKLLIYYTSRLHSGVPSRFSGSGSGTDYSLTISNLEQEDIATYFCQQGNTLPWTFGGGTKLEIKR	–	–	–	–	EC50 [1]: ~2.5 µg/mL

The next lines start with results.

EC50 [2]	binding result [3]	IC50 [5]	EC50 [6]	Molecule	further results
~0.1 µg/mL	binds	–	–	humanized IgG4κ anti-human CD134 antibody clone 20E5 version 20E5_VL2VH2 (antibody, V domains shown, Stabilized human IgG4/κ; end of each range computed) VH: QVQLVQSGAEVKKPGASVKVSCKASGYTFTSYVMHWVRQAPGQRLEWIGYINPYNDGTKYNEKFKGRATITSDTSASTAYMELSSLRSEDTAVYYCANYYGSSLSMDYWGQGTLVTVSS VL: DIQMTQSPSSLSASVGDRVTITCRASQDISNYLNWYQQKPGKAVKLLIYYTSRLHSGVPSRFSGSGSGTDYTLTISSLQPEDFATYFCQQGNTLPWTFGQGTKVEIKR	–
~0.1 µg/mL	binds	–	–	humanized IgG4κ anti-human CD134 antibody clone 20E5 version 20E5_VL1VH3 (antibody, V domains shown, Stabilized human IgG4/κ; end of each range computed; also called 20E5_VL1H3; 2-E5_VL1VH3) VH: QVQLVQSGAEVKKPGASVKVSCKASGYTFTSYVMHWVRQAPGQRLEWIGYINPYNDGTKYNEKFKGRATLTSDKSASTAYMELSSLRSEDTAVYYCANYYGSSLSMDYWGQGTLVTVSS VL: DIQMTQSPSSLSASVGDRVTITCRASQDISNYLNWYQQKPGKAPKLLIYYTSRLHSGVPSRFSGSGSGTDYTLTISSLQPEDFATYYCQQGNTLPWTFGQGTKVEIKR	–
~0.1 µg/mL	binds	–	–	humanized IgG4κ anti-human CD134 antibody clone 20E5 version 20E5_VL2VH3 (antibody, V domains shown, Stabilized human IgG4/κ; end of each range computed) VH: QVQLVQSGAEVKKPGASVKVSCKASGYTFTSYVMHWVRQAPGQRLEWIGYINPYNDGTKYNEKFKGRATLTSDKSASTAYMELSSLRSEDTAVYYCANYYGSSLSMDYWGQGTLVTVSS VL: DIQMTQSPSSLSASVGDRVTITCRASQDISNYLNWYQQKPGKAVKLLIYYTSRLHSGVPSRFSGSGSGTDYTLTISSLQPEDFATYFCQQGNTLPWTFGQGTKVEIKR	–
~0.05 µg/mL	–	~1.5 µg/mL	< 0.2 µg/mL	humanized IgG4κ anti-human CD134 antibody clone 12H3 version 12H3_VL2VH1 (antibody, V domains shown, Stabilized human IgG4/κ; end of each range computed; also called 12H3_VL2H1) VH: QVQLVQSGAEVKKPGSSVKVSCKASGYTFKDYTMHWVRQAPGQGLEWMGGIYPNNGGSTYNQNFKDRVTITADKSTSTAYMELSSLRSEDTAVYYCARMGYHGPHLDFDVWGQGTTVTVSS VL: DIQMTQSPSSLSASVGDRVTITCKASQDVGAAVAWYQQKPGKAPKLLIYWASTRHTGVPDRFSGGGSGTDFTLTISSLQPEDFATYYCQQYINYPLTFGGGTKVEIKR	–
~0.05 µg/mL	–	~1.5 µg/mL	< 0.2 µg/mL	humanized IgG4κ anti-human CD134 antibody clone 12H3 version 12H3_VL1VH1 (antibody, V domains shown, Stabilized human IgG4 (Angal et al.)/κ; also called 12H3_VL1H1) VH: QVQLVQSGAEVKKPGSSVKVSCKASGYTFKDYTMHWVRQAPGQGLEWMGGIYPNNGGSTYNQNFKDRVTITADKSTSTAYMELSSLRSEDTAVYYCARMGYHGPHLDFDVWGQGTTVTVSS VL: DIQMTQSPSSLSASVGDRVTITCKASQDVGAAVAWYQQKPGKAPKLLIYWASTRHTGVPSRFSGSGSGTDFTLTISSLQPEDFATYYCQQYINYPLTFGGGTKVEIKR	–
~0.05 µg/mL	–	~1.5 µg/mL	< 0.2 µg/mL	humanized IgG4κ anti-human CD134 antibody clone 12H3 version 12H3_VL2VH3 (antibody, V domains shown, Stabilized human IgG4/κ; end of each range computed) VH: QVQLVQSGAEVKKPGSSVKVSCKASGYTFKDYTMHWVRQAPGQGLEWIGGIYPNNGGSTYNQNFKDRATLTVDKSTSTAYMELSSLRSEDTAVYYCARMGYHGPHLDFDVWGQGTTVTVSS VL: DIQMTQSPSSLSASVGDRVTITCKASQDVGAAVAWYQQKPGKAPKLLIYWASTRHTGVPDRFSGGGSGTDFTLTISSLQPEDFATYYCQQYINYPLTFGGGTKVEIKR	–
